Assay results: paper PMC7089606 (Journal of Molecular Biology, 2010)

T1: DmCPD1Bs (D. melanogaster carboxypeptidase D variant 1B short) (Drosophila melanogaster, UniProt P42787)
T1 sequence (P42787 26-435 isoform P42787-7): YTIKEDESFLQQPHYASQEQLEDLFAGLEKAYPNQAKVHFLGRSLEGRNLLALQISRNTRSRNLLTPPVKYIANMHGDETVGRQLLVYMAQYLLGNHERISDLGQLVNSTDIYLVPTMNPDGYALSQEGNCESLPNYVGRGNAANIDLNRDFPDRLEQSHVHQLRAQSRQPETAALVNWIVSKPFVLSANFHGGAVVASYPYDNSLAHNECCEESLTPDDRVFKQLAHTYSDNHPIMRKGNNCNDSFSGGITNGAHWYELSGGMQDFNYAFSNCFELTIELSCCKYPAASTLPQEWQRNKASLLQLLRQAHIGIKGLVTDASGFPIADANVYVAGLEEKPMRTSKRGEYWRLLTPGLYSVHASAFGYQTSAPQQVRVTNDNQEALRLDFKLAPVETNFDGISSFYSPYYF


Assays:
[1] = recombinant expression yield in P. pastoris; details: glycan lost; control: wild type
[2] = biological target: T1, DmCPD1Bs (D. melanogaster carboxypeptidase D variant 1B short); assay: crystal structure at […] Å; assay type: biochemical
purified protein = substrate: N=C(N)NCCC[C@H](NC(=O)CNC(=O)c1ccccc1)C(=O)O; assay: purified protein; details: Zn2+

Row | Ki [2] | Molecule | expression_or_secretion [1] | Km (purified protein) | kcat (purified protein) | kcat/Km (purified protein)
1 |  | DmCPD1Bs (carboxypeptidase D variant 1B short, svr-PF): N269Q | decreases |  |  | 
2 |  | DmCPD1Bs (carboxypeptidase D variant 1B short, svr-PF): N133Q | decreases |  |  | 
3 | 670 ± 80 nM | N=C(N)NCCSC(CC(=O)O)C(=O)O (stereo not drawn) [GEMSA, 2-guanidinoethyl-mercaptosuccinic acid] |  |  |  | 
4 |  | DmCPD1Bs (D. melanogaster carboxypeptidase D variant 1B short) (Drosophila melanogaster) (protein) YTIKEDESFLQQPHYASQEQLEDLFAGLEKAYPNQAKVHFLGRSLEGRNLLALQISRNTRSRNLLTPPVKYIANMHGDETVGRQLLVYMAQYLLGNHERISDLGQLVNSTDIYLVPTMNPDGYALSQEGNCESLPNYVGRGNAANIDLNRDFPDRLEQSHVHQLRAQSRQPETAALVNWIVSKPFVLSANFHGGAVVASYPYDNSLAHNECCEESLTPDDRVFKQLAHTYSDNHPIMRKGNNCNDSFSGGITNGAHWYELSGGMQDFNYAFSNCFELTIELSCCKYPAASTLPQEWQRNKASLLQLLRQAHIGIKGLVTDASGFPIADANVYVAGLEEKPMRTSKRGEYWRLLTPGLYSVHASAFGYQTSAPQQVRVTNDNQEALRLDFKLAPVETNFDGISSFYSPYYF |  | 1112 ± 167 µM | 38.8 ± 4.1 s⁻¹ | 34900 M⁻¹ s⁻¹
5 |  | human CPB (hCPB) (Homo sapiens) (protein) ATGHSYEKYNKWETIEAWTQQVATENPALISRSVIGTTFEGRAIYLLKVGKAGQNKPAIFMDCGFHAREWISPAFCQWFVREAVRTYGREIQVTELLDKLDFYVLPVLNIDGYIYTWTKSRFWRKTRSTHTGSSCIGTDPNRNFDAGWCEIGASRNPCDETYCGPAAESEKETKALADFIRNKLSSIKAYLTIHSYSQMMIYPYSYAYKLGENNAELNALAKATVKELASLHGTKYTYGPGATTIYPAAGGSDDWAYDQGIRYSFTFELRDTGRYGFLLPESQIRATCEETFLAIKYVASYVLEHLY |  | 485.3 ± 62.5 µM | 254 ± 11.9 s⁻¹ | 523000 M⁻¹ s⁻¹
